Patent publication US20210260173A1

Target: IgG-type of BCR (membrane-bound IgG) on Nu-DUL-1 cells
Assay: cell-based or functional assay

## Immunoglobulin G-degrading enzyme of S. pyogenes (IdeS)
  loss of anti-Fab signal on Nu-DUL-1 cells (flow cytometry) after IdeS treatment: > 4 µg/mL
  membrane bound IgG on Nu-DUL-1 cells one hour after IdeS treatment and wash (flow cytometry, anti-Fab): > 4 µg/mL
